From paper PMC8385639, “Fluorescence Correlation Spectroscopy Reveals Survival Motor Neuron Oligomerization but No Active Transport in Motor Axons of a Zebrafish Model for Spinal Muscular Atrophy” (Frontiers in Cell and Developmental Biology, 2021)

B1: GST-hSMN (252-284) (domain or fragment, human, UniProt Q16637 252-284, looked up)
chain: DSLDDADALGSMLISWYMSGYHTGYYMGFRQNQ
notes: The N-terminal place of GST is read from the printed name only; also called human SMN; human-SMN only control; source: E. coli BL21(DE3), purified (NiNTA); not shown: GST, N-terminal, kept
B2: His6-MBP-zfSMNwt (natural protein, zebrafish, UniProt Q9W6S8 1-281, looked up)
chain: MANGAEDVVFCRGTGQSDDSDIWDDTALIKAYDKAVASFKNALKGEDGATPQENDNPGKKRKNNKKNKSRKRCNAAPDKEWQVGDSCYAFWSEDGNLYTATITSVDQEKGTCVVFYTDYGNEEEQNLSDLLTEPPDMDEDALKTANVKETESSTEESDRSFTPQKSGHAKHKSKSNFPMGPPSWFPSFPPGPPPPPPHFKKMDGRRGEGPGPSFPGWPPMIPLGPPMIPPPPPMSPDFGEDDEALGSMLISWYMSGYHTGYYMGLRQGRKEAAASKKSHRK
notes: Survival motor neuron protein (Smn), zebrafish, wild type; The order of the tags is read from the printed name only; also called zebrafish Smn; zebrafish-Smn only control; source: E. coli BL21(DE3), purified (NiNTA); not shown: His6, N-terminal, kept; MBP, N-terminal, kept

Legend:
[1] = biological target: B2; experiment: SEC; Superdex 200 Increase 10/300 GL; purified fusion proteins run alone and as a mixture; fractions analysed by SDS-PAGE with Coomassie staining; conditions: both partners purified
[2] = biological target: the molecule itself; experiment: as above

Row | Binder | binding result [1] | binding result [2]
1 | B1 | binds | binds
2 | B2 | – | binds
